Reference: patent publication US20260207767A1 (ANAVEON, published 2026)
Positions count from the first letter of the chain named.

T1: IL-2R CD122-CD132 on Jurkat-PD1+CD122+ cells (UniProt P14784 27-551; P31785 23-369)
T1 sequence (looked up) 1: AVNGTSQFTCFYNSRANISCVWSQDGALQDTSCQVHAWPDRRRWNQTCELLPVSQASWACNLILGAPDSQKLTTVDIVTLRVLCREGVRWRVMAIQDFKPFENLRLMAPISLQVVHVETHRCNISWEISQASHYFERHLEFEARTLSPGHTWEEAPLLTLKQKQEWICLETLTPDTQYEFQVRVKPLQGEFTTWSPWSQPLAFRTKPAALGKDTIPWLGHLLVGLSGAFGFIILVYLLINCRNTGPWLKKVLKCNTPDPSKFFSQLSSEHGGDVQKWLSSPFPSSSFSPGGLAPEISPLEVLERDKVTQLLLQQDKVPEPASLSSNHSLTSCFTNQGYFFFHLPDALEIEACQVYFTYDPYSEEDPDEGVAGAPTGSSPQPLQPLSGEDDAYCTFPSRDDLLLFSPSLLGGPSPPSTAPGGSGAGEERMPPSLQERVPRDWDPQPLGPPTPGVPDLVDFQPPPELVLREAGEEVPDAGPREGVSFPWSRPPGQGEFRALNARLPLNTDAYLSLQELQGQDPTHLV
T1 sequence (looked up) 2: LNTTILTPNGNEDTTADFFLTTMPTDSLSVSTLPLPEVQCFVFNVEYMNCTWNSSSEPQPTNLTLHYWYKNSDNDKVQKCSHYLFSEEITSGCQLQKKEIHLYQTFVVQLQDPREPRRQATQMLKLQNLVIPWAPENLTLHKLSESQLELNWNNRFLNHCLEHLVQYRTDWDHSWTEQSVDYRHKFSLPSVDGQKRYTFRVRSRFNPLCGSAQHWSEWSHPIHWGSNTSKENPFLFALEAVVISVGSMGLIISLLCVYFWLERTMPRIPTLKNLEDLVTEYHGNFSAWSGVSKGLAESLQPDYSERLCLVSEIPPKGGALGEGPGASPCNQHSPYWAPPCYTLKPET

B1: MDS446 (bispecific antibody, human IgG1, kappa, L234A L235A)
heavy 1: QVQLVQSGAEVKKPGASVKVSCKASGYTFTNFYIHWVRQAPGQGLEWMGSIYPNYGITAYNQKFKDRVTMTVDTSTSTAYMELRSLRSDDTAVYYCARGYSYAMDYWGQGTTVTVSSASTKGPSVFPLAPSSKSTSGGTAALGCLVKDYFPEPVTVSWNSGALTSGVHTFPAVLQSSGLYSLSSVVTVPSSSLGTQTYICNVNHKPSNTKVDKRVEPKSCDKTHTCPPCPAPEAAGGPSVFLFPPKPKDTLMISRTPEVTCVVVDVSHEDPEVKFNWYVDGVEVHNAKTKPREEQYNSTYRVVSVLTVLHQDWLNGKEYKCKVSNKALAAPIEKTISKAKGQPREPQVYTLPPSREEMTKNQVSLTCLVKGFYPSDIAVEWESNGQPENNYKTTPPVLDSDGSFFLTSKLTVDKSRWQQGNVFSCSVMHEALHNHYTQKSLSLSPGK
light: DIQMTQSPSSVSASVGDRVTITCSASQGISGDLNWYQQKPGKAPKLLIYHTSQLHSDVPSRFSGSGSGTDFTLTISSLQPEDFATYYCQGYSKDLLTFGGGTKLEIKRTVAAPSVFIFPPSDEQLKSGTASVVCLLNNFYPREAKVQWKVDNALQSGNSQESVTEQDSKDSTYSLSSTLTLSKADYEKHKVYACEVTHQGLSSPVTKSFNRGEC
heavy 2: AIRLTQSPSSFSASTGDRVTITCKASQSVDYGGGNFHLRPRDLISNINVIVLELKGSETTFMCEYADETATIVEFLNRWITFSQSIISTLTPTSSSTKKTQLQLEHLLLDLQMILNGINNYKNPKLTRMLTFKFYMPKKATELKHLQCLEEELKPLEEVLNLAQSKGGGGDSYMNWYQQKPGKAPKLLIYAASNLESGVPSRFSGSGSGTDFTLTISSLQSEDFATYYCQQSNEDPYTFGGGTKVEIKGGGGSGGGGSGGGGSEVQLVQSGAEVKKPGESLKISCKGSGYAFTNYLIEWVRQMPGKGLEWMGVINPGSGGTNYNEKFKGQVTISADKSISTAYLQWSSLKASDTAMYYCARWRGEGYYAYFDVWGQGTTVTVSSGGGGSGGGGSQVQLVQSGAEVKKPGASVKVSCKASGYTFTNFYIHWVRQAPGQGLEWMGSIYPNYGITAYNQKFKDRVTMTVDTSTSTAYMELRSLRSDDTAVYYCARGYSYAMDYWGQGTTVTVSSASTKGPSVFPLAPSSKSTSGGTAALGCLVKDYFPEPVTVSWNSGALTSGVHTFPAVLQSSGLYSLSSVVTVPSSSLGTQTYICNVNHKPSNTKVDKRVEPKSCDKTHTCPPCPAPEAAGGPSVFLFPPKPKDTLMISRTPEVTCVVVDVSHEDPEVKFNWYVDGVEVHNAKTKPREEQYNSTYRVVSVLTVLHQDWLNGKEYKCKVSNKALAAPIEKTISKAKGQPREPQVYTLPPSREEMTKNQVSLYCLVKGFYPSDIAVEWESNGQPENNYKTTPPVLDSDGSFFLYSKLTVDKSRWQQGNVFSCSVMHEALHNHYTQKSLSLSPGK
B2: TMU471 (bispecific antibody, human IgG1, kappa, L234A L235A)
heavy 1: B1 heavy 1 with S50R
light: B1 light with L54R
heavy 2: B1 heavy 2 with S444R
B3: QAB373 (bispecific antibody, human IgG1, kappa, L234A L235A)
heavy 1: QVQLVQSGAEVKKPGASVKVSCKASGYTFTNFYIHWVRQAPGQGLEWMGSIYPNYGITAYNQKFKDRVTMTVDTSTSTAYMELRSLRSDDTAVYYCARGYSYAMDYWGQGTTVTVSSASVAAPSVFIFPPSDEQLKSGTASVVCLLNNFYPREAKVQWKVDNALQSGNSQESVTEQDSKDSTYSLSSTLTLSKADYEKHKVYACEVTHQGLSSPVTKSFNRGECDKTHTCPPCPAPEAAGGPSVFLFPPKPKDTLMISRTPEVTCVVVDVSHEDPEVKFNWYVDGVEVHNAKTKPREEQYNSTYRVVSVLTVLHQDWLNGKEYKCKVSNKALAAPIEKTISKAKGQPREPQVYTLPPSREEMTKNQVSLTCLVKGFYPSDIAVEWESNGQPENNYKTTPPVLDSDGSFFLTSKLTVDKSRWQQGNVFSCSVMHEALHNHYTQKSLSLSPGK
light 1: DIQMTQSPSSVSASVGDRVTITCSASQGISGDLNWYQQKPGKAPKLLIYHTSQLHSDVPSRFSGSGSGTDFTLTISSLQPEDFATYYCQGYSKDLLTFGGGTKLEIKSSASTKGPSVFPLAPSSKSTSGGTAALGCLVKDYFPEPVTVSWNSGALTSGVHTFPAVLQSSGLYSLSSVVTVPSSSLGTQTYICNVNHKPSNTKVDKRVEPKSC
heavy 2: EVQLVQSGAEVKKPGESLKISCKGSGYAFTNYLIEWVRQMPGKGLEWMGVINPGSGGTNYNEKFKGQVTISADKSISTAYLQWSSLKASDTAMYYCARWRGEGYYAYFDVWGQGTTVTVSSASTKGPSVFPLAPSSKSTSGGTAALGCLVKDYFPEPVTVSWNSGALTSGVHTFPAVLQSSGLYSLSSVVTVPSSSLGTQTYICNVNHKPSNTKVDKRVEPKSCDKTHTCPPCPAPEAAGGPSVFLFPPKPKDTLMISRTPEVTCVVVDVSHEDPEVKFNWYVDGVEVHNAKTKPREEQYNSTYRVVSVLTVLHQDWLNGKEYKCKVSNKALAAPIEKTISKAKGQPREPQVYTLPPSREEMTKNQVSLYCLVKGFYPSDIAVEWESNGQPENNYKTTPPVLDSDGSFFLYSKLTVDKSRWQQGNVFSCSVMHEALHNHYTQKSLSLSPGK
light 2: not shown
B4: RIB426 (bispecific antibody, human IgG1, kappa, L234A L235A)
heavy 1: B3 heavy 1 with S50R
light 1: B3 light 1 with L54R
heavy 2: B3 heavy 2
light 2: not shown
B5: JLI141 (bispecific antibody, human IgG1, lambda, L234A L235A)
heavy 1: EVQLLESGGGLVQPGGSLRLSCAASGFTFSINAMTWVRQAPGKGLEWVSTISGSGFSTYYADSLKGRFTISRDNSKNTLYLQMNSLRAEDTAVYYCAKEVYGDYWGQGTLVTVSSASTKGPSVFPLAPSSKSTSGGTAALGCLVKDYFPEPVTVSWNSGALTSGVHTFPAVLQSSGLYSLSSVVTVPSSSLGTQTYICNVNHKPSNTKVDKRVEPKSCDKTHTCPPCPAPEAAGGPSVFLFPPKPKDTLMISRTPEVTCVVVDVSHEDPEVKFNWYVDGVEVHNAKTKPREEQYNSTYRVVSVLTVLHQDWLNGKEYKCKVSNKALAAPIEKTISKAKGQPREPQVYTLPPSREEMTKNQVSLTCLVKGFYPSDIAVEWESNGQPENNYKTTPPVLDSDGSFFLTSKLTVDKSRWQQGNVFSCSVMHEALHNHYTQKSLSLSPGK
light: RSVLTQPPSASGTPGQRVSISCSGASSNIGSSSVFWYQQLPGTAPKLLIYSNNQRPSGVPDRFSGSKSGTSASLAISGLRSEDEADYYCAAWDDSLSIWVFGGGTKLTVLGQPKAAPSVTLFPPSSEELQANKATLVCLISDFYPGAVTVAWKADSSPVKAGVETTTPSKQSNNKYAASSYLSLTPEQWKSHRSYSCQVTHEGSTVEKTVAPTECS
heavy 2: AIRLTQSPSSFSASTGDRVTITCKASQSVDYGGGNFHLRPRDLISNINVIVLELKGSETTFMCEYADETATIVEFLNRWITFSQSIISTLTPTSSSTKKTQLQLEHLLLDLQMILNGINNYKNPKLTRMLTFKFYMPKKATELKHLQCLEEELKPLEEVLNLAQSKGGGGDSYMNWYQQKPGKAPKLLIYAASNLESGVPSRFSGSGSGTDFTLTISSLQSEDFATYYCQQSNEDPYTFGGGTKVEIKGGGGSGGGGSGGGGSEVQLVQSGAEVKKPGESLKISCKGSGYAFTNYLIEWVRQMPGKGLEWMGVINPGSGGTNYNEKFKGQVTISADKSISTAYLQWSSLKASDTAMYYCARWRGEGYYAYFDVWGQGTTVTVSSGGGGSGGGGSEVQLLESGGGLVQPGGSLRLSCAASGFTFSINAMTWVRQAPGKGLEWVSTISGSGFSTYYADSLKGRFTISRDNSKNTLYLQMNSLRAEDTAVYYCAKEVYGDYWGQGTLVTVSSASTKGPSVFPLAPSSKSTSGGTAALGCLVKDYFPEPVTVSWNSGALTSGVHTFPAVLQSSGLYSLSSVVTVPSSSLGTQTYICNVNHKPSNTKVDKRVEPKSCDKTHTCPPCPAPEAAGGPSVFLFPPKPKDTLMISRTPEVTCVVVDVSHEDPEVKFNWYVDGVEVHNAKTKPREEQYNSTYRVVSVLTVLHQDWLNGKEYKCKVSNKALAAPIEKTISKAKGQPREPQVYTLPPSREEMTKNQVSLYCLVKGFYPSDIAVEWESNGQPENNYKTTPPVLDSDGSFFLYSKLTVDKSRWQQGNVFSCSVMHEALHNHYTQKSLSLSPGK
B6: GQM289 (bispecific antibody, human IgG1, kappa, lambda, L234A L235A)
heavy 1: B5 heavy 1
light 1: not shown
heavy 2: B3 heavy 2
light 2: not shown

What follows are binders tested against T1, IL-2R CD122-CD132 on Jurkat-PD1+CD122+ … (assay: cell-based or functional assay).

Row | Binder | EC50 value for pSTAT5 induction, Jurkat-PD-1+CD122+ cells
1 | B1 | 60 pM
2 | B2 | 60 pM
3 | B3 | 70 pM
4 | B4 | 0.12 nM
5 | B5 | 0.2 nM
6 | B6 | 0.22 nM
